In PMC6212638, “In silico identification and biochemical characterization of the human dicarboxylate clamp TPR protein interaction network” (FEBS Open Bio, 2018):
Ends that are not written are not given here. Peptide text beside a SMILES is read from it.

T1: AIP (Homo sapiens, UniProt O00170)
T1 sequence (O00170 1-330): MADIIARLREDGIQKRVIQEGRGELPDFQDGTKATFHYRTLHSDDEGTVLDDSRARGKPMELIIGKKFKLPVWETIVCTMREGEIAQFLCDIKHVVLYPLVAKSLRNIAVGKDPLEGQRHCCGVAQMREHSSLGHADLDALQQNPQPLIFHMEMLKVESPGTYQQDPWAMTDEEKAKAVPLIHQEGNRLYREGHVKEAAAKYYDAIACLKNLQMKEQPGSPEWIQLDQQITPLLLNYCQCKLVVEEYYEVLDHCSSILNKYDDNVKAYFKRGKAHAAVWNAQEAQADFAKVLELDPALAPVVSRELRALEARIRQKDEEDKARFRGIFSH

T2: FKBP51 (Homo sapiens, UniProt Q13451)
T2 sequence (Q13451 1-457): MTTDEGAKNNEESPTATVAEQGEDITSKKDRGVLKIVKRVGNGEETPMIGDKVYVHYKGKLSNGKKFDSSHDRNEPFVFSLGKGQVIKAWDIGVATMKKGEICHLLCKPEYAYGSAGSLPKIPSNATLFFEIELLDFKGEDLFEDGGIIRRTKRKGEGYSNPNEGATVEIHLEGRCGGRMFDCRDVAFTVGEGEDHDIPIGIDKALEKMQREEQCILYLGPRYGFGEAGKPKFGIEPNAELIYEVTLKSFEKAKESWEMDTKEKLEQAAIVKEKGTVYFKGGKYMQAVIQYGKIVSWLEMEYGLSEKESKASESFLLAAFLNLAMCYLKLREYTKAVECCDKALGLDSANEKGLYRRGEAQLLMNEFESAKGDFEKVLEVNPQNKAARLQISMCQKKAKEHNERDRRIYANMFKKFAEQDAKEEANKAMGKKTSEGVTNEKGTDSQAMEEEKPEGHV

T3: Tom70(94–608) (UniProt O94826 94-608)
T3 construct: mitochondrial import receptor Tom70, residues 94-608 as the primers are named; the reverse primer codes for ...KPPTL-stop; source: dot blots used GST-tag-free proteins
T3 sequence (looked up): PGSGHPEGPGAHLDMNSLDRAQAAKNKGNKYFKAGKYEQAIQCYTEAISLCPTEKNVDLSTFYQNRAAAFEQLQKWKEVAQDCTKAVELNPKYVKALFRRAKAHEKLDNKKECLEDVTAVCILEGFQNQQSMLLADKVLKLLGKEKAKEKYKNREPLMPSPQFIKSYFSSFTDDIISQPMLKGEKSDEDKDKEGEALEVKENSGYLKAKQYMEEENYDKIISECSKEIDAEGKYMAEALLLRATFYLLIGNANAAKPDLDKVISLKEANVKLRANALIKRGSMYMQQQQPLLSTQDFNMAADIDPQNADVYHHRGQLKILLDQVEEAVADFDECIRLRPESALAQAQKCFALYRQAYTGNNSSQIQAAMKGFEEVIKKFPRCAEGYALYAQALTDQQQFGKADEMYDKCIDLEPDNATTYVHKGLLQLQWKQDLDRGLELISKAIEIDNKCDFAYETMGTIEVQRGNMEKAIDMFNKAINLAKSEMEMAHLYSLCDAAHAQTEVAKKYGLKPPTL

T4: FKBP51 (human, UniProt Q13451 1-457)
T4 construct: GST-tag-free protein spotted on nitrocellulose; also called immobilized FKBP51; source: E. coli BL21, purified as GST fusion (GSTrap), GST removed with PreScission protease
T4 sequence (looked up): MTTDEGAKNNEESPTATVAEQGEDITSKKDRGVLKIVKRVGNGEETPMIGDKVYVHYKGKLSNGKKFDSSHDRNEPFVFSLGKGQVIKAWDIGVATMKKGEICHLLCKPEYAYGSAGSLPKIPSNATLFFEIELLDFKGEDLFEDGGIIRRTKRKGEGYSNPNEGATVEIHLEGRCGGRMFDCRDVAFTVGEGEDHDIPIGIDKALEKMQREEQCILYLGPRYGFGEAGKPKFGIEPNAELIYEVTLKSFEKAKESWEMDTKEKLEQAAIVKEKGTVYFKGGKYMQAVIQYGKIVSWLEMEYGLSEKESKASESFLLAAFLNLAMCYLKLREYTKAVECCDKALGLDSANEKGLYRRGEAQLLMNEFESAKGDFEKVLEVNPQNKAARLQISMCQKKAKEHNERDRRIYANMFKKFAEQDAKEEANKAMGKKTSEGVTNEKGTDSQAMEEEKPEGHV

T5: AIP (human, UniProt O00170 1-330)
T5 construct: GST-tag-free protein spotted on nitrocellulose; also called nitrocellulose-immobilized AIP; source: E. coli BL21, purified as GST fusion (GSTrap), GST removed with PreScission protease
T5 sequence (looked up): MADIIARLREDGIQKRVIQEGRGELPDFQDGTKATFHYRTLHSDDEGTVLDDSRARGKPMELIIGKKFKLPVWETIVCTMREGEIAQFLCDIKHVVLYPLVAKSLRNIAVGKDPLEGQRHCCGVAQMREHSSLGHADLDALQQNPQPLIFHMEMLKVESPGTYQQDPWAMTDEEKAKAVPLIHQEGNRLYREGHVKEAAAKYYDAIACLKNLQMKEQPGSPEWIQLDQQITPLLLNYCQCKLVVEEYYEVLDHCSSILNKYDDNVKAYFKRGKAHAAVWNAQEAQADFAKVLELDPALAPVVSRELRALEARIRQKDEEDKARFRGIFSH


Tests used:
AIP [1] = molecular target: T1, AIP; test: Dot-blot competition assay: HRP-conjugated peptide vs unlabeled peptide on nitrocellulose-immobilized AIP
Experimental: (§1) Full‐length cDNA clones for respective proteins were obtained from IMAGE consortium (SourceBioScience, Nottingham, UK) and PCR amplified with forward and reverse primers (Table 1) containing overhangs with appropriate restriction sites and cloned into pGEX6 vectors (GE Healthcare, Uppsala, Sweden). Inserts were sequence verified, and the plasmids were transformed into BL21 Escherichia coli strain. Glutathione‐S‐transferase (GST) fusion proteins were purified from 1 L overnight culture after 2 h of induction with 1 mM IPTG. Cells were pelleted, resuspended in 1× PBS and sonicated 3 × 20 s on ice. EDTA and protease inhibitor cocktail were added to prevent proteolysis. The suspension was centrifuged for 30 min at 50 000 g to remove cell debris, and supernatant was loaded onto a 1 mL GSTrap™ 4B column (GE Healthcare). After column washing with 30 mL PBS, GST fusion proteins were eluted with 2.5 mL 10 mM glutathione in PBS. Eluate was passed through a PD‐10 column (GE Healthcare) to remove free glutathione. To prepare GST‐tag‐free proteins, we performed overnight cleavage at 4 °C with PreScission protease (GE Healthcare) followed by passage through a GSTrap column to remove free GST protein. Average yield from 1 L starting culture was 1–5 mg of purified proteins. Protein‐containing fractions were collected, checked with SDS/PAGE and kept at −20 °C.
(§2) Peptides were dissolved in HEPES‐KOH buffer pH 7.2 at concentration of 1 mg·mL^−1 and incubated with equimolar amounts of activated horseradish peroxidase (HRP) (Lightning‐link® HRP labeling kit cat. 701‐004, from Innova Biosciences) for 5 min. Reaction was quenched with 0.1 M Tris/HCl, pH 7.5 for 10 min and the products were passed through PD‐10 columns (GE Healthcare). Dot‐blot experiments were performed using GST‐tag‐free proteins applied to the nitrocellulose membrane. After blocking of membrane with 3% BSA in TBS‐T buffer for 1 h and subsequent wash with TBS‐T, HRP‐conjugated peptides (1 × 500 times dilution) were applied and incubated for 1 h. After subsequent washing (3 × 10 min, TBS‐T), membrane was dried and signals were quantified using a digital Fujifilm LAS3000 imager and LAS3000 software. In competition experiments, increasing concentrations of unlabeled peptides were co‐incubated with peptide–HRP conjugates.
(§3) Each peptide was separately coupled to HRP.

FKBP51 [2] = molecular target: T2, FKBP51; test: Dot-blot competition assay: HRP-conjugated peptide vs unlabeled peptide on immobilized FKBP51
Experimental: as §1, §2, §3

Tom70 = test: Dot-blot assay of Tom70 with HRP-conjugated Hsp90 and Tom20 peptides in presence of unconjugated peptides; type: binding, human; details: 20 μM unconjugated peptide
Experimental: In subsequent experiments, non‐fluorescent peptides were used. […] Cell impermeable Hsp90 peptide served as a treatment control.
Figure 6 In vitro and in situ analysis of interactions of 10‐amino‐acid peptides corresponding to C termini of Hsp90 and Tom20 with Tom70. (A) Dot‐blot assay of interactions between Tom70 and HRP‐conjugated 10‐amino‐acid peptides corresponding to C termini of Hsp90 and Tom20 in the presence of 20 μM of unconjugated peptides. (B) Fluorescence imaging of HEK293 cells in the presence of 20 μM of fluorescein‐labeled Hsp90, R9–Hsp90, Tom20 and R9–Tom20 peptides. (C) Inhibition of Tom20–Tom70 and Hsp90–Tom70 interactions with R9–Hsp90 and R9–Tom20 in HEK293 cells measured by PLA. n = 3. Graphs were created and SD values were calculated using PRISM, version 7.02. *P‐value < 0.05 compared to control; comparisons are based on one‐way ANOVA. (D) Inhibition of Tom20–Tom70 and Hsp90–Tom70 interactions with R9–Hsp90 and R9–Tom20 in HEK293 cells measured by mammalian two‐hybrid assay. n = 3. Graphs were created and SD values were calculated using PRISM, version 7.02. *P‐value < 0.05 compared to control; comparisons are based on one‐way ANOVA.

Tom70(94–608) = molecular target: T3, Tom70(94–608); test: far-Western, overlay or dot blot; Tom70 on nitrocellulose, probed with HRP-conjugated Hsp90 or Tom20 peptide in the presence of 20 μM of unconjugated peptides; details: both partners purified
FKBP51 [3] = molecular target: T4, FKBP51; test: far-Western, overlay or dot blot; GST-tag-free FKBP51 or AIP on nitrocellulose, blocked with 3% BSA in TBS-T, probed 1 h with HRP-conjugated peptide, alone or with increasing concentrations of unlabeled peptide; luminescence quantified; IC50 estimated; n = 3; details: both partners purified
AIP [4] = molecular target: T5, AIP; test: as above; details: both partners purified

| IC50 (AIP [1]) [µM] | IC50 (FKBP51 [2]) [µM] | IC50 (FKBP51 [3]) [µM] | IC50 (AIP [4]) [µM] | Molecule | other results |
| --- | --- | --- | --- | --- | --- |
| 8.47 ± 0.43 | 25.6 ± 1.54 | – | – | CC(C)C[C@H](NC(=O)[C@H](CC(=O)O)NC(=O)[C@H](Cc1ccc(O)cc1)NC(=O)[C@H](CC(C)C)NC(=O)[C@H](CC(C)C)NC(=O)[C@H](CO)NC(=O)[C@H](CC(N)=O)NC(=O)[C@H](CCC(N)=O)NC(=O)[C@@H](N)Cc1ccccc1)C(=O)N[C@@H](CC(=O)O)C(=O)O [DNAAF2] (H-FQNSLLYDLD-OH) | – |
| 10.6 ± 1 | 27.6 ± 2.85 | – | – | CC[C@H](C)[C@H](NC(=O)[C@@H](NC(=O)[C@@H]1CCCN1C(=O)CNC(=O)[C@H](CO)NC(=O)CN)[C@@H](C)O)C(=O)N[C@@H](CCC(=O)O)C(=O)N[C@@H](CCC(=O)O)C(=O)N[C@H](C(=O)N[C@@H](CC(=O)O)C(=O)O)C(C)C [Hsp70.1] | – |
| 8.64 ± 0.8 | 42.8 ± 4.16 | – | – | CSCC[C@H](NC(=O)[C@H](CC(N)=O)NC(=O)[C@@H](NC(=O)[C@H](CO)NC(=O)[C@H](CC(N)=O)NC(=O)[C@H](CCCCN)NC(=O)[C@@H](N)CCC(=O)O)C(C)C)C(=O)N[C@@H](CC(=O)O)C(=O)N[C@@H](CC(C)C)C(=O)N[C@@H](CC(=O)O)C(=O)O [Hsp105] (H-EKNSVNMDLD-OH) | – |
| 9.74 ± 0.72 | 28.2 ± 1.96 | – | – | CC(C)C[C@H](NC(=O)[C@H](CO)NC(=O)[C@H](CCC(N)=O)NC(=O)[C@@H]1CCCN1C(=O)[C@H](CCC(=O)O)NC(=O)[C@H](C)N)C(=O)N[C@@H](CC(=O)O)C(=O)NCC(=O)N[C@H](C(=O)N[C@@H](CC(=O)O)C(=O)O)C(C)C [NADSYN1] (H-AEPQSLDGVD-OH) | – |
| 35.3 ± 3.2 | 132 ± 12.6 | – | – | CC(C)C[C@H](NC(=O)[C@H](CO)NC(=O)[C@H](CCC(N)=O)NC(=O)[C@H](C)N)C(=O)N[C@@H](C)C(=O)N[C@@H](CCC(=O)O)C(=O)N[C@@H](CC(=O)O)C(=O)N[C@@H](CC(=O)O)C(=O)N[C@H](C(=O)N[C@@H](CCC(=O)O)C(=O)O)C(C)C [Tom20] (H-AQSLAEDDVE-OH) | competition with HRP-conjugated Hsp90 peptide for Tom70 binding (Tom70): unable to disrupt |
| 18.8 ± 2.78 | 19.7 ± 2.55 | – | – | CSCC[C@H](NC(=O)[C@H](CC(N)=O)NC(=O)[C@H](CO)NC(=O)[C@H](Cc1ccc(O)cc1)NC(=O)[C@@H](NC(=O)[C@@H]1CCCN1)[C@@H](C)O)C(=O)N[C@@H](CCC(=O)O)C(=O)N[C@@H](CCC(=O)O)C(=O)N[C@H](C(=O)N[C@@H](CC(=O)O)C(=O)O)C(C)C [Usp19] (H-PTYSNMEEVD-OH) | – |
| 55 ± 4.51 | 189 ± 12.9 | – | – | CSCC[C@H](NC(=O)[C@H](CCCCN)NC(=O)[C@H](CCC(=O)O)NC(=O)[C@H](CC(=O)O)NC(=O)[C@H](CC(=O)O)NC(=O)[C@@H](N)CO)C(=O)N1CCC[C@H]1C(=O)N[C@@H](CC(=O)O)C(=O)N[C@@H](CC(C)C)C(=O)N[C@@H](CCC(=O)O)C(=O)O [p23] (H-SDDEKMPDLE-OH) | – |
| – | – | – | – | AQSLAEDDVE (also: HRP-conjugated, the 10 C-terminal residues of Tom20) [HRP-conjugated Tom20 peptide] | binding result (Tom70(94–608)): binds |
| – | – | – | – | EDASRMEEVD (also: HRP-conjugated, the 10 C-terminal residues of Hsp90β; also called HRP–Hsp90; Hsp90 peptide conjugated to HRP) [HRP-conjugated Hsp90β peptide] | binding result (Tom70(94–608)): binds |
| – | – | 28 | 18 | AEPQSLDGVD (the 10 C-terminal residues of NADSYN1; source: synthetic peptide (Peptide 2.0, Inc.), > 95% purity) [NADSYN1 peptide] | – |
| – | – | 183 | 62 | AQSLAEDDVE (the 10 C-terminal residues of Tom20; also called Tom20 label-free peptide; unlabeled Tom20 peptide; source: synthetic peptide (Peptide 2.0, Inc.), > 95% purity) [Tom20 peptide] | – |
| – | – | 291 | 47 | SDDEKMPDLE (the 10 C-terminal residues of p23 / PTGES3; also called p23 C-terminal peptide; source: synthetic peptide (Peptide 2.0, Inc.), > 95% purity) [p23 peptide] | – |
| – | – | 19 | 9 | PTYSNMEEVD (source: synthetic peptide (Peptide 2.0, Inc.), > 95% purity) [Usp19 peptide] | – |
| – | – | 25 | 8 | FQNSLLYDLD (the 10 C-terminal residues of DNAAF2; source: synthetic peptide (Peptide 2.0, Inc.), > 95% purity) [DNAAF2 peptide] | – |
| – | – | 16 | 18 | EDASRMEEVD (the 10 C-terminal residues of Hsp90β; also called Hsp90 peptide; Hsp90β-derived peptide; source: synthetic peptide (Peptide 2.0, Inc.), > 95% purity) [Hsp90β peptide] | binding result (Tom70(94–608)): binds |
| – | – | 40 | 6 | EKNSVNMDLD (the 10 C-terminal residues of Hsp105; source: synthetic peptide (Peptide 2.0, Inc.), > 95% purity) [Hsp105 peptide] | – |
